Data on two molecules can be found in paper PMC5454376, “Molecular mechanism of Gαi activation by non-GPCR proteins with a Gα-Binding and Activating motif” (Nature Communications, 2017).

The subject of one test is Gαi3. The conditions noted are these: GBA motif of CALNUC; cited from earlier work. An excerpt:
The disordered nature of GIV-CT is intrinsic and not a consequence of the truncation of the protein at residue 1,660 since disorder is predicted for the C-terminal 330 residues of the GIV sequence, and larger fragments of GIV can also recapitulate G-protein binding and/or activation in a GBA motif-dependent manner. The ...

A further test deals with Gαi3-[GDP]. As to the kind of experiment: Pull-down, GDP-loaded Gαi3. Format: binding, rat. The conditions noted are these: GST fusion on glutathione-agarose, 100 μM GDP, 4 °C, pH 8.1, immunoblot. As for the experimental part:
(§1) Preparation of nucleotide-free Gαi3 and pull-down assay
(§2) His-tagged rat Gαi3 cloned in a pET28b vector was purified from BL21(DE3) bacteria (Life Technologies) after isopropyl-[beta]-D-thiogalactoside (IPTG) induction. Nucleotide-free Gαi3 was prepared by promoting nucleotide release with high concentrations of ammonium sulfate in the presence of glycerol. For this, His-Gαi3 was run through a Superdex S75 column equilibrated with 20 mM Tris-HCl (pH 7.4), 20 mM NaCl, 1 mM MgCl2, 1 mM dithiothreitol (DTT), 10 μM GDP and 5% (v/v) glycerol. A volume of 200 μl of His-Gαi3 at ∼5 μM were loaded on a Sephadex G-25 column (10 ml) equilibrated with 1 M ammonium sulfate, 20% (v:v) glycerol (pH 6) and the protein eluted at room temperature with the same buffer. Protein-containing fractions were pooled (∼400–600 μl) and incubated overnight at 4 °C. […] After transfer to polyvinylidene difluoride (PVDF) membranes, GST-fused proteins were visualized by Ponceau S staining and His-Gαi3 detected by immunoblotting with mouse anti-polyHis-Tag primary antibodies (1:2,500, Sigma, H1029) and goat anti-mouse IRDye 800F(ab′)2 secondary antibodies (1:10,000, Li-Cor) using an Odyssey Infrared Imaging System (Li-Cor Biosciences). […]

Another test deals with Gαi3-[GTP]. As to the kind of experiment: Pull-down, GDP/AlF4^−-loaded Gαi3. The conditions noted are these: GST fusion on glutathione-agarose, 4 °C, pH 8.1, immunoblot. The test is classed as binding, rat. Here is the method: as §1, §2

B1: CALNUC: GBA motif protein with calcium-binding EF hands (protein, UniProt Q02818 27-461, looked up)
Nucleobindin-1: VPLERGAPNKEETPATESPDTGLYYHRYLQEVIDVLETDGHFREKLQAANAEDIKSGKLSRELDFVSHHVRTKLDELKRQEVSRLRMLLKAKMDAEQDPNVQVDHLNLLKQFEHLDPQNQHTFEARDLELLIQTATRDLAQYDAAHHEEFKRYEMLKEHERRRYLESLGEEQRKEAERKLEEQQRRHREHPKVNVPGSQAQLKEVWEELDGLDPNRFNPKTFFILHDINSDGVLDEQELEALFTKELEKVYDPKNEEDDMREMEEERLRMREHVMKNVDTNQDRLVTLEEFLASTQRKEFGDTGEGWETVEMHPAYTEEELRRFEEELAAREAELNAKAQRLSQETEALGRSQGRLEAQKRELQQAVLHMEQRKQQQQQQQGHKAPAAHPEGQLKFHPDTDDVPVPAPAGDQKEVDTSEKKLLERLPEVEVPQHL
Consider B1, for which the “Gαi3 binding, calcium dependence” value with Gαi3 was “only when the protein is not calcium-bound”.

B2: GAIP: GAIP (also known as RGS19), a GAP used as control (protein)
chain: MPTPHEAEKQITGPEEADRPPSMSSHDTASPAAPSRNPCCLCWCCCCSCSWNQERRRAWQASRESKLQPLPSCEVCATPSPEEVQSWAQSFDKLMHSPAGRSVFRAFLRTEYSEENMLFWLACEELKAEANQHVVDEKARLIYEDYVSILSPKEVSLDSRVREGINKKMQEPSAHTFDDAQLQIYTLMHRDSYPRFLSSPTYRALLLQGPSQSSSEA
modifications: left off: GST, end not stated, kept
notes: GAIP (also known as RGS19), a GAP used as control
On to B2, for which the “binding to Gαi3-[GDP]” value in the test on Gαi3-[GDP] is “not to Gαi3-[GDP]”. Also, the “binding to Gαi3-[GTP]” value in the test on Gαi3-[GTP] is “binds exclusively”.
